Article PMC3988464
Like-named read-outs stand apart in the source and are kept apart here. Each block holds one substance with its values, some of them ahead of it.

How the values were obtained:
Wild type CXCL8 (human) [1] = assay: SPR
Wild type CXCL8 (human) [2] = assay: SPR; remark: listed apart in the source
CXCL8 (Homo sapiens) = CXCL8 (Homo sapiens) (UniProt P10145); details: cited from earlier work
[3] = biological target: Isolated Link module of human TSG-6 (Link_TSG6) (human) (UniProt P98066); assay: SPR
Isolated Link module of human TSG-6 (Link_TSG6) (human), sequence (P98066 36-129): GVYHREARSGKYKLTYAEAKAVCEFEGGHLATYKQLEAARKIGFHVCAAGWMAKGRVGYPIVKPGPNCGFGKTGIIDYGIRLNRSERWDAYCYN

[4] = biological target: Isolated Link module of human TSG-6 (Link_TSG6) (human) (UniProt P98066); assay: SPR; remark: listed apart in the source
CXCR2 (Homo sapiens) = CXCR2 (Homo sapiens) (UniProt P25025); details: cited from earlier work
CXCR2 (Homo sapiens), sequence (P25025 whole entry): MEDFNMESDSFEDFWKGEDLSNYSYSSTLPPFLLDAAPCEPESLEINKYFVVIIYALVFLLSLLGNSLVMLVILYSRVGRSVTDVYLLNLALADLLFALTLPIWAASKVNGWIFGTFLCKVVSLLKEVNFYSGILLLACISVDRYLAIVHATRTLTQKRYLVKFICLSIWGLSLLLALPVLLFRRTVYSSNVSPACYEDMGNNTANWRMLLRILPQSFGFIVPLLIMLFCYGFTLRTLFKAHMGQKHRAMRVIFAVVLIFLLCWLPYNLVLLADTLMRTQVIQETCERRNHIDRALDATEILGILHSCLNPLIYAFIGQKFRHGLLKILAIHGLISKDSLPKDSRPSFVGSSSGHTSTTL

Wild type CXCL8 (human) [5] = biological target: Wild type CXCL8 (human)

Full-length, wild type recombinant human TSG-6, sequence (P98066 18-277): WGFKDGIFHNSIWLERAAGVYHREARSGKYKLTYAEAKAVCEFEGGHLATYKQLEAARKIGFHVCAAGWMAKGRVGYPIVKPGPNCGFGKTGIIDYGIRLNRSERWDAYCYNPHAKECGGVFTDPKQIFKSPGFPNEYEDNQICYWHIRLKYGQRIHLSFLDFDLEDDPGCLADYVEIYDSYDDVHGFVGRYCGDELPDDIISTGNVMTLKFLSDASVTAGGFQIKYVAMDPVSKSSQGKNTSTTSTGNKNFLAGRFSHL
CXCL8, sequence (P10145 28-99): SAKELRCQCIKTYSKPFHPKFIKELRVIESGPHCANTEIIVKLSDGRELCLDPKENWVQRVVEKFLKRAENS
CXCL8 (Homo sapiens), sequence (P10145 28-99): as above
Evasin-3, sequence (P0C8E8 21-86): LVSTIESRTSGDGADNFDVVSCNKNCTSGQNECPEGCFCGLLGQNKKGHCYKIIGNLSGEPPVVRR
Isolated Link module of human TSG-6 (Link_TSG6), sequence (P98066 36-129): as the sequence (P98066 36-129) above

Kd (Wild type CXCL8 (human) [1]): 20 nM
Kd (Wild type CXCL8 (human) [2]): 74 nM
Substance: Full-length, wild type recombinant human TSG-6 (from UniProt P98066 18-277) (natural protein)

Substance: Evasin-3 (from UniProt P0C8E8)
Kd (CXCL8 (Homo sapiens)): 1 nM

Kd [3]: 6 nM
koff [3]: 0.00032 s⁻¹
Kd [4]: 21 nM
koff [4]: 0.0011 s⁻¹
Substance: Wild type CXCL8 (ligand)

Substance: CXCL8 (from UniProt P10145)
Kd (CXCR2 (Homo sapiens)): 1 nM

inhibition of CXCL8-induced neutrophil trans-migration (Transwell) (Wild type CXCL8 (human) [5]): 10 nM
Substance: Isolated Link module of human TSG-6 (Link_TSG6) (from UniProt P98066 36-129) (domain or fragment)
